Test results from the domain aggregation screens of Martell et al. (2025).

experiment: soluble fraction after stress (log2 fold change); higher = more stays soluble; pooled small domains, quantitative proteomics; details: stress: 75 degC
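Further: 20 min heating vs room temperature control held 20 min.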

Sequence | soluble fraction (log2)
HMEILTLEELKRLMAKAKLKQNQISGHAGVSKQQISMILAGKRNITKDVSDNLKANLAEYFP | -0.651
HMEILVSTRRHEIASLLSRKKRVSFFELFPEKTKEYVVATFLAILEMAKAREVNITQEDTFDEIIVEEA | -2.18
HMEIPTPAELREKRIRMGLKQADVARMAGISQSMVARIESGSVDPRVSTLAKIVEVLQAAER | -0.488
HMEISLEAKMAEVREQVRGLAGINFRTLLEMQASRSNIIVTFLAILELMKIGAIQIRQEEIFGEIIIDSRD | -0.104
HMEISPGDVFKQLPGIGDDLSRRVVESLGIQSLEELESAAHDGRLEQVEGFGERRVQMVRAVLTGMLS | -0.00517
HMEITTEDIAAQVASWIVRLSEDLTSTDRAALQIEFEQWQQTDSRRAEIAHKMLSLIGQAEQLRKT | -0.712
HMEKAISSLTLEEAKKRLEMVRSEKDASLQIYKETGSETARVTAENYGKEENSLLLHISEMSNIV | 0.425
HMEKFTGELSQEEKNVLDALSHEEMHVDIIIKLTKLETSAVSSTLSLLEIKGLIKNIGGQNYIK | 0.543
HMEKIIFEISEEGKRLDLYIAERTELTRTRIQQLIKDGNINVNNKKSKPSYKVEKNDFIEMIIPDE | -1.23
HMEKINLIIEEDNNLRLDKVIAMQLQELSRTQIQDMINQGLVLVNQKKEKASYKTKLNDEIEITILD | -1.13
HMEKKDTYTVKNGDSLWGIARTELGDGGRFREIYTLNADTIEAEAKKRGRSSSSEGHWIYPGSVLRLP | 0.304
HMEKKGTVVIATVKGDIHDIGKNIVKVLLENYGFDVIDLGKDVPPEAVVEAVQQSGARLVGLSALM | -0.898
HMEKKSKLVLAVLQGSDSDNTIRNLNERGFMVTVLSSTGGFLKKKSTTVMIGVEEDRLEEALDVLQKYAG | -0.549
HMEKKTILIPPVITVRALAEISQIPVNRLLQELIKNGVFTSINEKIDFDTAVIIGADLNLDIQLL | -1.86
HMEKLPRYILPGVPKVKSINISSALDGLVQDYSREFNISQKDIFQIALVEFFKKYGYHNAVKAVL | -2.29
HMEKLSMLKIKELFRLAIEMNLSHRQIAQSLNVSHTVVNRYLKRFKKSNLSYETLLKLGDKEIISALYEH | -3.67
HMEKPAQDVLASHREWMGEMIKAEHMTAKQVWRLLRERADIGVSYPTVKRYLRAHFQFGGPS | -1.57
HMEKRLDYTFGLNKEQLLYLTKSIKDGDFYNVSFIDGTEKKLNRVGSTKEVHKYVNFLMTNDGIVKK | -0.389
HMEKSLKELAQGVGQKVLTSGRPYHFDPMSAMERRVVHMTLMEMDGLRTESEGEGRFRHVVVFPA | -0.0884

Sequence | soluble fraction (log2)
HMEKTEQMQVILDYIARYGEINNEKVQEILGVKRTRAYTILKQMVENGFVTTNGRGEEKKYYSIR | -1.25
HMEKTIQIYDNIIIKDFAEKMEVSPSQVITKLIGLGVMANLNQPIDINSAVIVGKEFGFNVESM | -1.29
HMEKVLPFEFERKFKTNHTAWDFFSNQAPPSYRKTVIHWILSAKQEITRISRLEKLIAASEQQKRI | -0.518
HMEKYIVNQEEQGKRLDIYVVNKSSELTRTAVQRLIEQEHILVNGRKQKASYKVLEGDIITIERV | 0.753
HMEKYTDDLEIAAEIARLETLMEGNGRVLIRPSGTEPLVRVMIEGNDIEQITKLAEDLAALLNKRF | -0.717
HMELDFNSVYRQLNHEQKQAYQSIKSVLEQKISGSELDKKLKQAQQAFVAKFKENPNFEVPK | 0.608
HMELDIGKKAIVIEKIDPEAGTGRVRIEGVDWGAKTADSSVIEKGETVVVKAKGAAFVTVAK | 0.0983
HMELEAFPNPTDMFLSFTTKEKTPLAIYDINGKQVLYVEQITSSSKINVSKLSEGVYFAKTNQGTVKWVK | -2.35
HMELEQLKSQLTGFLKANREQIFTAQNLADGLRMTDSQGYKQVVNALNASVRDGDVIDIKNGYQYNKN | 0.0444
HMELEWENYSLAGEIKTTVMLYQNRRNGLPEEAKQKADALMKQLKQAVIENDAQKVEKIDDALTALLFE | -0.564
HMELGYTPNNLRSVRAKYGLTQKQVAEITGLKTWHPVNRWEAPVEAAYHADMPHTKWLKLLDELSSR | -1.45
HMELKYIDYDEALVVYAKTVTASGGGLSGVKDEGGIRKVLDFVQNDLYYPTFVDKLTYLVFGL | 0.168
HMELLPAERRQQLVDWFKSNQAGTSQDLARMFGISVSTIRRDLDLLASEGLVKRTHGGAVSIR | -0.055
HMELLPFEFARANRVLLRVNESDLVVSPDANHSAVTEILRLNNNIETIKSVDAEAFDKILSSIYSG | -0.804
HMELLSVPSRLGTFFLGGEAGHIIRLYLPGDPTPRIAEHETPVLSEARRQLLEYLAGRRTAFSFPL | -0.0691
HMELNEIEFENLKESIIIHLEKESLSPHELVKHIQTIHPDKVTAVIQWMLENGFIKTDAGGQLTLVSK | 0.199
HMELNELTSRELMVAEQVARGASNREISEALSISERTVKAHLSAAFEKLGVRDRVQLALAMNNIPT | -0.106
HMELNKNDLKIIKNISHIYPYFTPVKILQLILSKKFKTIDYNKILKSTSILTTDRSHLYYILNN | 0.0816
HMELPSDEHLDDISHLARIGHKKGLQEKIIQLEQQGLASAEFIQQLKTLTNNFQFEKIIQWVDSEL | -0.055

Sequence | soluble fraction (log2)
HMELRIREILESKDIKVSSLAETVGITRANMSNIVNGKSTPSLETLEKIANALGVDITELFA | -0.432
HMELSAEGWVDGTGVRMRASASTDSEVVRVTEDGESLDITGVSGTWYRVTAGGVSGYIRSDYVSLEEP | -0.0699
HMELSAQEIGRRLRIARENADIRQDDAAQVIGMSRPTLVSIEKGVRRVRIQEIQMLARHYGVSVNALLR | -2.2
HMELSVTDRTRQIRHILKEKGRVEFTSLFEELTKPYVIVTFLSVLEMSKNNELMITQDKTFGSITLEMKG | -0.446
HMELVIGESLAVELLRPGKEDGQALGYLPDGSMVVVNNGRAFVGKRVTAEIIGVIRSAGGKMVFSNLLGE | -3.36
HMEMDITIQMRTLVEELNRASDAYYNGRGELMTDYEWDAKFDQLKQLESQSGVVLPDSPTHRV | -0.244
HMEMELNHVARRAGRLSGFLKGELRLSTGLMNRLKWSNAILVNGKPARTNAQVEPGDRITVILD | -2.35
HMEMLQENIRNLRKAKGWSQEELAIKLNVVRQTVSKWEKGLSVPDSQMLIRIADELDTTVAILLG | -0.705
HMEMLQRFIFLENVSSTQVESAIKELHPNLNLKRVKLSFPGADTVLLKGPKQDLELAEELIRHLDRSE | -0.652
HMEMPGGVMRTLSTIAYNQPVLQSKLVKVRGPRAYEDVHILRDMGLVSARSVGQTVELSTTPKFAEQF | -0.622
HMENEIFVPKVFMDWYNKVDKSIKVFKAFNLIEKETDPRLKEWVEDNQDEFAKIWLGQLLPVV | -0.155
HMENFIPDDPKRIEIGMSVLHQRFGKGKVMQLEGNLPDMKATVNFEGEGQKQLLLKYARLKIV | -0.99
HMENIDVGQDYKVTMNTIQNLMKTGLVTGTQYKELLREMGVHSGMGAITAQQHQIALDFLNKTMDSA | ≥ 1.04
HMENIIKISASYEGLRVDQFLSNYLKISRSKVQKYISEEKIFLNNVPTKTNRKVKLDDIISYNLNF | -3.01
HMENITTILRSIKNEIKKNSTFVGDDFVNQARSMNQGQIKEKSIYGHGTKKEIEELRDEGVDVLNIPWIT | -0.104
HMENKIIKNAAHATLKVKKDAGIEITTELIREAVILFHRIYSPNDNPNINWERIINELESHYT | -3.66
HMENLFPDYTMQDYRIVRSELSSKFKVQTVPVTTATATENKIVRQEPEAGSRITEGMTVILYYSIGPE | -1.51
HMENLRLSELTVERGHRLAGRTLADIASAPNSPKYLIVLIQRGQETVIPTGSTVILPGDVLILAQS | -1.7
